# Laboratory results from patent US20130295010A1, “HER2 BINDING PEPTIDES LABELLED WITH A 18F - CONTAINING ORGANOSILICON COMPOUND” (priority 2010, published 2013).
# Key:
# [1] = mouse, in vivo, iv, 3 MBq, 1.5 h
# Protocol: Following intravenous injection of 3 MBq of activity (2.5 MBq for the 2 min time point), animals were sacrificed at 2, 90, 120 and 180 min post injection and retention of radioactivity was assessed in key organs.
# [2] = test system: target-expressing SKOV3 tumors; details: mouse, in vivo
# Protocol: In vivo studies were carried out with female CD-1 nude mice (Charles River Labs, Hopkinton, Mass.) with an age range between 6 and 15 weeks. Mice were housed in a ventilated rack with food and water ad libitum and a standard 12 hour day-night lighting cycle. For xenografts, animals were injected with 100 μl of cells in PBS. Cells were implanted subcutaneously in the right hindquarter. Implantation was performed under isoflurane anesthesia. For SKOV3, between 3×10^6 to 4×10^6 cells were implanted in each mouse. Under these conditions, useable tumors (100 to 300 μg) were obtained in 3 to 4 weeks in greater than 80% of animals injected.
# Mice were given tail-vein injections of ˜1 μg of ^99mTc-labeled polypeptides (˜3 μCi/1 μg). […] Three mice were euthanized at each timepoint and tissues of interest dissected and counted on a Perkin Elmer Wallac Wizard 1480 Gamma Counter. […] Urine from cages was pooled with the bladder and also counted. The remaining tissues were counted and the sum of all tissues plus urine for each animal was summed to provide the total injected dose. The % injected dose for each organ was determined based on this total, and organs were weighed for determination of the % injected dose per gram, (% ID/g). […]
# Mice were given tail-vein injections of ˜1 ug of ^99mTc-labeled polypeptides (˜10 μCi/1 μg). […] Urine from cages was pooled with the bladder and also counted. […]
Substance,kidney retention [1],activity in the kidneys [2]
[18F]AlF-NOTA(COOH)-2-Z02891(SEQ ID No. 2) [Compound 5],70.3 % ID,
Z02891 (SEQ. ID No. 2) ^18F-fluorobenzyl oxime: Z02891-ONH2 (Mal-AO linker on C-terminal cysteine) conjugated with [18F]4-fluorobenzaldehyde,,0.95±0.07 ID/organ
